Results reported in patent US20110318339A1.

Columns and labels:
[1] = molecular target: rHuman CD44/Fc Chimera, CF (Cat# 3660-CD) (human) (UniProt P16070); test: Multispot ECL; Fab […]
[2] = molecular target: rHuman EGF R/Fc Chimera, CF (Cat# 344-ER) (human) (UniProt P00533); test: Multispot ECL; Fab […]
[3] = molecular target: rHuman ErbB2/Fc Chimera, CF (Cat# 1129-ER) (human) (UniProt P04626); test: Multispot ECL; Fab […]
[4] = molecular target: rHuman Erythropoietin R/Fc Chimera, CF (Cat# 963-ER) (human) (UniProt P19235); test: Multispot ECL; Fab […]
Chain of rHuman Erythropoietin R/Fc Chimera, CF (Cat# 963-ER) (human) (P19235 25-250, change not shown): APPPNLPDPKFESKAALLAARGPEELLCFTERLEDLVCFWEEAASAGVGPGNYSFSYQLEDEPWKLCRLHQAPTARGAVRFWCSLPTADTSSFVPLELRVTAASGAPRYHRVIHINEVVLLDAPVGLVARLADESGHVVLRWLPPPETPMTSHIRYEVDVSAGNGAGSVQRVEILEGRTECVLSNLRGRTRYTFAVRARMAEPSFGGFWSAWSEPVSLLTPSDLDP

[5] = molecular target: rHuman HGF R/c-MET/Fc Chimera, CF (Cat# 358-MT/CF) (human) (UniProt P08581); test: Multispot ECL; Fab […]
[6] = molecular target: rHuman IGF-1 sR, (IGF-1 sR), CF (Cat# 391-GR) (human) (UniProt P08069); test: Multispot ECL; Fab […]
[7] = molecular target: rHuman Notch-1/Fc Chimera, CF (Cat# 3647-TK) (human) (UniProt P46531); test: Multispot ECL; Fab […]
[8] = molecular target: rHuman P-Cadherin/Fc Chimera, CF (Cat# 861-PC) (human) (UniProt P22223); test: Multispot ECL; Fab […]
[9] = molecular target: rHuman CD44/Fc Chimera, CF (Cat# 3660-CD) (human) (UniProt P16070); test: Multispot ECL; Fab 170 nM
[10] = molecular target: rHuman EGF R/Fc Chimera, CF (Cat# 344-ER) (human) (UniProt P00533); test: Multispot ECL; Fab 170 nM
[11] = molecular target: rHuman ErbB2/Fc Chimera, CF (Cat# 1129-ER) (human) (UniProt P04626); test: Multispot ECL; Fab 170 nM
[12] = molecular target: rHuman Erythropoietin R/Fc Chimera, CF (Cat# 963-ER) (human) (UniProt P19235); test: Multispot ECL; Fab 170 nM
[13] = molecular target: rHuman HGF R/c-MET/Fc Chimera, CF (Cat# 358-MT/CF) (human) (UniProt P08581); test: Multispot ECL; Fab 170 nM
[14] = molecular target: rHuman IGF-1 sR, (IGF-1 sR), CF (Cat# 391-GR) (human) (UniProt P08069); test: Multispot ECL; Fab 170 nM
[15] = molecular target: rHuman Notch-1/Fc Chimera, CF (Cat# 3647-TK) (human) (UniProt P46531); test: Multispot ECL; Fab 170 nM
[16] = molecular target: rHuman P-Cadherin/Fc Chimera, CF (Cat# 861-PC) (human) (UniProt P22223); test: Multispot ECL; Fab 170 nM
[17] = molecular target: rHuman CD44/Fc Chimera, CF (Cat# 3660-CD) (human) (UniProt P16070); test: Multispot ECL; Fab 340 nM
[18] = molecular target: rHuman EGF R/Fc Chimera, CF (Cat# 344-ER) (human) (UniProt P00533); test: Multispot ECL; Fab 340 nM
[19] = molecular target: rHuman ErbB2/Fc Chimera, CF (Cat# 1129-ER) (human) (UniProt P04626); test: Multispot ECL; Fab 340 nM
[20] = molecular target: rHuman Erythropoietin R/Fc Chimera, CF (Cat# 963-ER) (human) (UniProt P19235); test: Multispot ECL; Fab 340 nM
[21] = molecular target: rHuman HGF R/c-MET/Fc Chimera, CF (Cat# 358-MT/CF) (human) (UniProt P08581); test: Multispot ECL; Fab 340 nM
[22] = molecular target: rHuman IGF-1 sR, (IGF-1 sR), CF (Cat# 391-GR) (human) (UniProt P08069); test: Multispot ECL; Fab 340 nM
[23] = molecular target: rHuman Notch-1/Fc Chimera, CF (Cat# 3647-TK) (human) (UniProt P46531); test: Multispot ECL; Fab 340 nM
[24] = molecular target: rHuman P-Cadherin/Fc Chimera, CF (Cat# 861-PC) (human) (UniProt P22223); test: Multispot ECL; Fab 340 nM
[25] = molecular target: rHuman CD44/Fc Chimera, CF (Cat# 3660-CD) (human) (UniProt P16070); test: Multispot ECL; Fab 85.0 nM
[26] = molecular target: rHuman EGF R/Fc Chimera, CF (Cat# 344-ER) (human) (UniProt P00533); test: Multispot ECL; Fab 85.0 nM
[27] = molecular target: rHuman ErbB2/Fc Chimera, CF (Cat# 1129-ER) (human) (UniProt P04626); test: Multispot ECL; Fab 85.0 nM
[28] = molecular target: rHuman Erythropoietin R/Fc Chimera, CF (Cat# 963-ER) (human) (UniProt P19235); test: Multispot ECL; Fab 85.0 nM
[29] = molecular target: rHuman HGF R/c-MET/Fc Chimera, CF (Cat# 358-MT/CF) (human) (UniProt P08581); test: Multispot ECL; Fab 85.0 nM
[30] = molecular target: rHuman IGF-1 sR, (IGF-1 sR), CF (Cat# 391-GR) (human) (UniProt P08069); test: Multispot ECL; Fab 85.0 nM
[31] = molecular target: rHuman Notch-1/Fc Chimera, CF (Cat# 3647-TK) (human) (UniProt P46531); test: Multispot ECL; Fab 85.0 nM
[32] = molecular target: rHuman P-Cadherin/Fc Chimera, CF (Cat# 861-PC) (human) (UniProt P22223); test: Multispot ECL; Fab 85.0 nM

Substance: Fab VH4-34_IGHD7-27*01_IGHJ4*01 & V4-6_IGLJ4*01
- ECL signal [1]: 522
- ECL signal [2]: 528
- ECL signal [3]: 866
- ECL signal [4]: 494
- ECL signal [5]: 607
- ECL signal [6]: 646
- ECL signal [7]: 649
- ECL signal [8]: 421
- ECL signal [9]: 660
- ECL signal [10]: 826
- ECL signal [11]: 964
- ECL signal [12]: 790
- ECL signal [13]: 757
- ECL signal [14]: 832
- ECL signal [15]: 816
- ECL signal [16]: 744
- ECL signal [17]: 959
- ECL signal [18]: 1210
- ECL signal [19]: 1230
- ECL signal [20]: 1260
- ECL signal [21]: 1240
- ECL signal [22]: 1040
- ECL signal [23]: 1210
- ECL signal [24]: 1160
- ECL signal [25]: 693
- ECL signal [26]: 1000
- ECL signal [27]: 844
- ECL signal [28]: 817
- ECL signal [29]: 998
- ECL signal [30]: 891
- ECL signal [31]: 780
- ECL signal [32]: 709
